Data taken from paper PMC9608704.
Where “and” joins values, the source holds several entries; their conditions need not be identical. Equal values may be shown once.

Molecular target: HLA-B*2704 heavy chain (human)
Assay: non-reducing SDS-PAGE with Western blot; cell surface proteins of C1R-B*2704 or C1R-B*2704 C67S cells biotinylated, extracted in the presence of iodoacetamide, precipitated by avidin-agarose beads, separated by non-reducing SDS-PAGE and blotted with the BH2 antibody; disulfide-linked oligomers judged by mobility

Substance: HLA-B*2704 heavy chain (natural protein)
- stoichiometry N: 2 and 4
